The target of experiment [1] is Fucα1,6GlcNAc-CD52 (17) (human) (UniProt P31358).
For experiment [2] the target is unchanged. This is another data set of the same source.

Read-outs that look alike come from different tables or passages of the source.

On to “Endo-F2 (Endoglycosidase-F2), wild type (enzyme)”, for which, in experiment [1], the transglycosylation with sialoglycan oxazoline (12), yield of 18 was 25%. Regarding “Endo-F3 (Endoglycosidase-F3), wild type (enzyme)”, the transglycosylation with sialoglycan oxazoline (12), isolated yield of 18 in experiment [1] was found to be 55%. For Endo-F3 D126A mutant (enzyme), in experiment [2], the transglycosylation with sialoglycan oxazoline (12), yield of 18 is greater than 90%.

For the substance Endo-F3 D126Q mutant (enzyme), in experiment [2], the transglycosylation with sialoglycan oxazoline (12), yield of 18 is greater than 90%.

Values taken from patent US20120226024A1.
